Measured values from paper PMC5015425, “Structural insights into Parkin substrate lysine targeting from minimal Miro substrates” (Scientific Reports, 2016).

Target: the molecule itself
Test: SEC-MALS; S200 10/300 GL column, 25 mM HEPES pH 7.4, 200 mM NaCl, 0.5 mM TCEP, 1 mM MgCl2, 0.5 mL/min, 10 °C; injected: hMiro1-C 16 mg/mL, hMiro2-C 7 mg/mL, hMiro1-CM 18 mg/mL

B1: human Miro1 cGTPase domain, aa 411-592 (hMiro1-C) (domain or fragment, UniProt Q8IXI2 411-592, looked up)
chain: KKQTQRNVFRCNVIGVKNCGKSGVLQALLGRNLMRQKKIREDHKSYYAINTVYVYGQEKYLLLHDISESEFLTEAEIICDVVCLVYDVSNPKSFEYCARIFKQHFMDSRIPCLIVAAKSDLHEVKQEYSISPTDFCRKHKMPPPQAFTCNTADAPSKDIFVKLTTMAMYPHVTQADLKSSTF
notes: human Miro1 (RhoT1), C-terminal GTPase (cGTPase) domain, residues 411-592; Dimer in the crystal and in solution; Details of expression are in the Supplementary Methods; also called hMiro1-CD; hMiro1 cGTPase; source: bacteria, purified (TALON beads, HiTrap S cation exchange, Superdex 200 when necessary)
Q: How did the “stoichiometry N” value turn out when B1 was run?
A: Its value is 2.
